± gives the standard deviation of the averaged measurements.

The subject of the series is ATP. Put plainly: switch fluorescence ratio, 500 uM ATP over buffer (Cy3 cluster intensity, sum of 5 cycles each) (fold (ratio)); higher = stronger signal-on switching upon ATP binding; sequences stand for … in TCGTCGGCAGCGTCAGATGTGTATAAGAGACAGTTTTTTTTTTTTTTTTTTTTTTTTT…TC. The conditions noted are these: aptamer strand: ATP DNA aptamer (quencher-CACCTGGGGGAGTATTGCGGAGGAAGG + anchor), 100 nM annealed; ATP concentration: 500 uM. Put shortly:
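Imaging in selection buffer was followed by imaging after 15 min with 500 uM ATP at 22 °C, for Cy3-labelled switching-strand clusters annealed to 100 nM quencher-labelled ATP aptamer on a modified Illumina MiSeq flow-cell. Five of these buffer/ATP cycles ran, separated by NaOH stripping and re-annealing. The fluorescence ratio per cluster is summed target-cycle over summed buffer-cycle Cy3 intensity, averaged per switch-domain sequence; clusters outside 100-1000 RFU were removed.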
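Also: ATP exposure 15 min at 22 °C before imaging.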

For GCTTGTAGCT, the switch fluorescence ratio was 1.02 ± 0.0095. For AGCATAAGCA, the switch fluorescence ratio stood at 1.15 ± 0.27. The same measure for CGAAGGTTTT: 1.02 ± 0.015; for TGAGATTTTG: 0.983 ± 0.045; for TTGACAGGCA: 0.968 ± 0.012.

Take ATATGGGAAA: the switch fluorescence ratio amounted to 0.978 ± 0.025. As for TTCACAAGG, the figure is 1.0218 ± 0.00034; as for GTTATAATGG, 0.9998 ± 0.0087; as for GACTACATTA, 1.03 ± 0.025. As for GGGCCGTTTG, the figure is 1.002 ± 0.0047; as for TGAATACTTT, 0.996 ± 0.044. As for GGGGTACGAT, the switch fluorescence ratio was 1.02 ± 0.027. The same measure for TTGCCGTGTA: 1.02 ± 0.031. The same measure for GGGTGTAGTA: 0.9978 ± 0.0079. The same measure for CGATGGTGGC: 1.073 ± 0.0067; for GAGTAGTTGT: 0.9969 ± 0.0083. GTATTAATGT: the switch fluorescence ratio was found to be 1.01 ± 0.011. The same measure for TGGATTATTG: 0.9445 ± 0.0019. As for TTCGTAGCAG, the figure is 1.23 ± 0.063. Take AGTTGTCAGT: the switch fluorescence ratio was 0.983 ± 0.028. Regarding GGGTGGTGCC, the switch fluorescence ratio is 0.997 ± 0.056.

Turning to TGTGATGTGG, the switch fluorescence ratio came to 1.04 ± 0.083. As for CGAGGGGTTG, the figure is 1 ± 0.04; as for GCGGGATATG, 0.994 ± 0.019. In the case of TTTATGCTCC, the switch fluorescence ratio worked out at 1.086 ± 0.0031.

Take CGGGGCGAAG: the switch fluorescence ratio was determined as 0.984 ± 0.038. The same measure for GAGAGTATGT: 0.998 ± 0.043; for TAAAAGTTTA: 1.04 ± 0.016; for TTGGGGGTTT: 1.02 ± 0.036.

Consider TATTGCGATT, for which the switch fluorescence ratio was 0.994 ± 0.018. Turning to ACAGACAATG, the switch fluorescence ratio came out at 1.02 ± 0.045. As for CGGTATTTAA, the figure is 1.02 ± 0.046. Take TATTTTAAAA: the switch fluorescence ratio is 0.986 ± 0.022. As for TAGATCAAG, the figure is 1.04 ± 0.028; as for GAGGGGAGAG, 1 ± 0.016. On to CGGCCGTACG, for which the switch fluorescence ratio came to 1.01 ± 0.019. As for CATTATGGGA, the switch fluorescence ratio stood at 1.009 ± 0.0063. As for TTTACAGTC, the figure is 1.01 ± 0.037. Take GGAATAGAGT: the switch fluorescence ratio stood at 1.02 ± 0.021. As for GATGGGTCTG, the figure is 0.948 ± 0.014; as for AGTGGAAGCA, 0.972 ± 0.031.

On to CATTGTGGGT, for which the switch fluorescence ratio came out at 0.975 ± 0.019. The same measure for ATCGGGGCGG: 0.993 ± 0.031; for TCCTCACTGT: 1.18 ± 0.034; for CGACGTGTGG: 1.02 ± 0.03. Take CAGTATAAAG: the switch fluorescence ratio turned out to be 0.9738 ± 0.0068.

With TGGTTCGTTT, the switch fluorescence ratio was determined as 0.995 ± 0.055.

Turning to TGTTGAGGAA, the switch fluorescence ratio turned out to be 1.05 ± 0.053.

Take ATCTTTGGTA: the switch fluorescence ratio worked out at 0.9826 ± 0.0074. The same measure for GCGGCCTCTT: 0.993 ± 0.013. The same measure for CGCACGAGGC: 1.23 ± 0.05. The same measure for GTATAGGGGC: 0.977 ± 0.025.

For TAGGTCCGTT, the switch fluorescence ratio amounted to 0.988 ± 0.031. As for CAAGACGTTG, the figure is 0.974 ± 0.012; as for CTTGACGGTC, 1.11 ± 0.1.

Consider CGTTTTGTGC, for which the switch fluorescence ratio came out at 1.03 ± 0.042. The same measure for CAGAGGATCA: 0.996 ± 0.015. In the case of AAGCGGTAGG, the switch fluorescence ratio was found to be 1.03 ± 0.015.

ACCCTTATAG: the switch fluorescence ratio is 1.018 ± 0.0093. As for TTAAACGTTA, the figure is 1.32 ± 0.44; as for ATGTGCTTGG, 1.02 ± 0.027. As to GGTCATGACG, the switch fluorescence ratio is 0.923 ± 0.046.

CTATTTACGA: the switch fluorescence ratio was determined as 1.05 ± 0.015. As for GAGGGGGGGG, the figure is 1.01 ± 0.039; as for GTTGGCGGGG, 0.976 ± 0.015. As for TGAAGCTTTA, the switch fluorescence ratio was 1.06 ± 0.048. As for TTAGTTGGTC, the switch fluorescence ratio amounted to 0.996 ± 0.029. ACACGAGGCT: the switch fluorescence ratio is 1.04 ± 0.029. Turning to TTCCCTTATG, the switch fluorescence ratio is 0.976 ± 0.017. The same measure for GTTTTAGTCC: 1.01 ± 0.025; for GTTGTTGGGT: 0.983 ± 0.034. The same measure for TACTTAGA: 1.04 ± 0.015; for GAGTTATTTT: 0.976 ± 0.017. With AACTACCAGA, the switch fluorescence ratio amounted to 1.062 ± 0.0045. The same measure for CCGTTTAGAT: 1.01 ± 0.011; for CGCTAGGTGT: 2.33 ± 0.76; for ACAGGGGAGT: 1.03 ± 0.02.

With CGGTACCGTT, the switch fluorescence ratio was 1.02 ± 0.049. Turning to CGGATTAGGG, the switch fluorescence ratio worked out at 1 ± 0.022.

With ATGGCCGGCC, the switch fluorescence ratio was found to be 1.01 ± 0.02.

Turning to ACATAGGGCT, the switch fluorescence ratio amounted to 0.987 ± 0.04.

With CTGTTTAGGG, the switch fluorescence ratio stood at 1.01 ± 0.018. The same measure for ACGTGATTTT: 1.09 ± 0.065; for GCTTTGAATT: 0.985 ± 0.017. The same measure for GTGTATACAT: 0.977 ± 0.066.

As for ATGAGTAAGG, the switch fluorescence ratio turned out to be 0.991 ± 0.013.

Turning to ATGATCGGAT, the switch fluorescence ratio stood at 0.977 ± 0.051.

Take CGATGTCACG: the switch fluorescence ratio turned out to be 1 ± 0.033.

In the case of AGTGCCGGGA, the switch fluorescence ratio came to 1.04 ± 0.034. The same measure for CAATTGGACA: 0.982 ± 0.01. As for TATGGGGGCT, the figure is 1.04 ± 0.012; as for TCGGAGTACT, 1.16 ± 0.03; as for GGGTGGTGGG, 0.987 ± 0.057.

As to AGAAAATTGG, the switch fluorescence ratio turned out to be 1.01 ± 0.03.

CTGAAGGGAC: the switch fluorescence ratio was determined as 1.15 ± 0.036. As to AAGGTCTGGT, the switch fluorescence ratio was found to be 0.985 ± 0.038. The same measure for GATGTTGTAT: 1.01 ± 0.021. Consider GGGATCTGTT, for which the switch fluorescence ratio amounted to 1.01 ± 0.019. As for GGTGTAGGTG, the figure is 0.9851 ± 0.0098. The same measure for AGAGTTCCGG: 1 ± 0.029. The same measure for TAGGGACTCT: 0.995 ± 0.014; for ATGGTTAGGT: 1.02 ± 0.029; for TGGGGGCTTC: 0.9896 ± 0.0091. Turning to AACCTGGGGA, the switch fluorescence ratio is 1.12 ± 0.19.

Consider TTTTGCGGCG, for which the switch fluorescence ratio turned out to be 1.25 ± 0.29. As for TGAGCGGCAA, the switch fluorescence ratio worked out at 1.2 ± 0.22. As for GCAGGCGGGG, the figure is 1.02 ± 0.034. As for GAGTGAGACT, the figure is 1.02 ± 0.072; as for TTCTATAATT, 1.03 ± 0.02; as for AGTGAGGCTC, 0.994 ± 0.011. In the case of TGAGTAGGGG, the switch fluorescence ratio came out at 0.994 ± 0.017.

Take TGTGGTGGCG: the switch fluorescence ratio was 0.935 ± 0.018. The same measure for CGATAGCAGC: 2.43 ± 0.52; for TTCTGTACGG: 1.02 ± 0.014. The same measure for CTTAGGATAG: 0.996 ± 0.0029. Regarding TTCATCCGTA, the switch fluorescence ratio was determined as 1.39 ± 0.23. The same measure for TTTTTAAAAA: 1.01 ± 0.059. In the case of ACCGGTTACC, the switch fluorescence ratio was determined as 1.09 ± 0.029.

In the case of TTTATAAAAC, the switch fluorescence ratio stood at 1.01 ± 0.051. As for TGGCGGGGGA, the switch fluorescence ratio was 1.05 ± 0.042.

The record behind these values is the supplement of paper PMC10126150.
